Experimental data as given in patent US20230037911A1 (SHANGHAI HENLIUS BIOTECH, published 2023).
Changes are numbered by the printed parent chain.

T1: human TIGIT stably expressed on cells (Jurkat; 293T) (human, UniProt Q495A1 22-244)
T1 construct: the expression vector's insert is not described further; also called h-TIGIT; human TIGIT transfected Jurkat cells
T1 sequence: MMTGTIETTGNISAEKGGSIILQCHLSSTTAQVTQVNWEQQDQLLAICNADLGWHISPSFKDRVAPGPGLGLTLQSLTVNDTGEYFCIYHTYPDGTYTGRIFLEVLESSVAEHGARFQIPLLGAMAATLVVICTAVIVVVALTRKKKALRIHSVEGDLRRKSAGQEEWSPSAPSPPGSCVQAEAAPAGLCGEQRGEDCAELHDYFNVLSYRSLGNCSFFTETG

T2: recombinant protein of his-tagged human TIGIT ECD (human, UniProt Q495A1 22-138)
T2 construct: Used in Octet assays; also called h-TIGIT ECD (his-tagged); not shown: his tag
T2 sequence: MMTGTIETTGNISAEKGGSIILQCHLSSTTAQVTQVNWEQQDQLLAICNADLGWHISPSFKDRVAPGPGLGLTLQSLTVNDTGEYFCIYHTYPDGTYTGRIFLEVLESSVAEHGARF

T3: recombinant human TIGIT extra cellular domain (ECD) protein (human, UniProt Q495A1 22-138)
T3 construct: Purchased protein; it begins with the signal peptide; also called h-TIGIT ECD; human TIGIT ECD
T3 sequence: T2 sequence

B1: 1A8 VHH (VHH)
VHH: QVQLVESGGGVVQPGRSLRLSCAASGPSFSSYPMGWFRQAPGKERESVAAISSRGRFTYYADSVKGRFTISRDNSKNTLYLQMNSLRAEDTAVYYCAARDSGSGYYSRAQWYDYWGQGTLVTVSS
notes: VHH in bacterial supernatant
B2: 6F12 VHH (VHH)
VHH: B1 VHH with S30T, R54D, T58K, R99E
notes: VHH in bacterial supernatant
B3: 7F6 VHH (VHH)
VHH: B1 VHH with S28M, R54D, G55P
notes: VHH in bacterial supernatant
B4: 2A3 MI (2A3 with methionine to isoleucine in CDR2) (VHH)
VHH: B1 VHH with P27G, R54D, G55I, S103V
B5: 2A3 ML (2A3 with methionine to leucine in CDR2) (VHH)
VHH: B1 VHH with P27G, R54D, G55L, S103V
B6: 2A3 ML_DE (2A3 with M to L in CDR2 and D to E in CDR3) (VHH)
VHH: B1 VHH with P27G, R54D, G55L, D100E, S103V
B7: anti-TIGIT x anti-PDL1 bispecific antibody LCC (VHH 2A3 fused to the C-terminal of the anti-PDL1 light chain) (bispecific antibody, human IgG1, lambda)
heavy: not shown
light: QSVVTQPPPVSGAPGQRVTISCTGSSSNVGAGYDVHWYQQLPGTAPKLLIYGNSQRSSGVPDRFSGSKSGTSASLAITGLQAEDEADYYCQTYDSSGSARVVFGGGTKLTVLGQPKAAPSVTLFPPSSEELQANKATLVCLISDFYPGAVTVAWKADSSPVKAGVETTTPSKQSNNKYAASSYLSLTPEQWKSHKSYSCQVTHEGSTVEKTVAPTECSGSGGSGGSGGSGQVQLVESGGGVVQPGRSLRLSCAASGGSFSSYPMGWFRQAPGKERESVAAISSDMRFTYYADSVKGRFTISRDNSKNTLYLQMNSLRAEDTAVYYCAARDSGVGYYSRAQWYDYWGQGTLVTVSS
notes: likely a printing error; also called aTIGITx aPDL1-LCC
B8: anti-TIGIT x anti-PDL1 bispecific antibody LCN (VHH 2A3 fused to the N-terminal of the anti-PDL1 light chain) (bispecific antibody, human IgG1, lambda)
heavy: not shown
light: QVQLVESGGGVVQPGRSLRLSCAASGGSFSSYPMGWFRQAPGKERESVAAISSDMRFTYYADSVKGRFTISRDNSKNTLYLQMNSLRAEDTAVYYCAARDSGVGYYSRAQWYDYWGQGTLVTVSSGSGGSGGSGGSGQSVVTQPPPVSGAPGQRVTISCTGSSSNVGAGYDVHWYQQLPGTAPKLLIYGNSQRSSGVPDRFSGSKSGTSASLAITGLQAEDEADYYCQTYDSSGSARVVFGGGTKLTVLGQPKAAPSVTLFPPSSEELQANKATLVCLISDFYPGAVTVAWKADSSPVKAGVETTTPSKQSNNKYAASSYLSLTPEQWKSHKSYSCQVTHEGSTVEKTVAPTECS
notes: also called aTIGITx aPDL1-LCN
B9: anti-TIGIT x anti-PDL1 bispecific antibody HCC (VHH 2A3 fused to the C-terminal of the anti-PDL1 heavy chain) (bispecific antibody, human IgG1, lambda)
heavy: not shown
light: QSVVTQPPPVSGAPGQRVTISCTGSSSNVGAGYDVHWYQQLPGTAPKLLIYGNSQRSSGVPDRFSGSKSGTSASLAITGLQAEDEADYYCQTYDSSGSARVVFGGGTKLTVLGQPKAAPSVTLFPPSSEELQANKATLVCLISDFYPGAVTVAWKADSSPVKAGVETTTPSKQSNNKYAASSYLSLTPEQWKSHKSYSCQVTHEGSTVEKTVAPTECS
notes: also called aTIGITx aPDL1-HCC; BsAb HCC
B10: anti-TIGIT x anti-PDL1 bispecific antibody HCN (VHH 2A3 fused to the N-terminal of the anti-PDL1 heavy chain) (bispecific antibody, human IgG1, lambda)
heavy: not shown
light: B9 light
notes: also called aTIGITx aPDL1-HCN; BsAb HCN
B11: 4D5 VHH (VHH)
VHH: VDSGGGAVKAGDSLRLVCSAPGRTHGRAFNEYAMAWFRQGPGKERESVAAISSDGRFTYYAASVKGRFTISKDNAKSAAFLQMNSLKPEDTAVYYCAARDSGSGYYSRAQWYDYWGQGTQVTVSS
notes: VHH in bacterial supernatant
B12: 4D11 VHH (VHH)
VHH: QVQLQESGGGLVQPGGSLRLSCAASGSISSINAMGWYRLAPGKHREFVADITNSGSTNYAASVKGRFNISRDNAKDTVYLQMNSLKFEDTAVYYCTARRSTWYISSGRGTQVTVSS
notes: VHH in bacterial supernatant
B13: 4H6 VHH (VHH)
VHH: QVQLVESGGGLATAGASLILSCAASGTIFRLNRMGWFRQAPGKERERVAATIWSGRRTHYADSVKGRFTISTDNAKKTVYLRMSSLKPEDTAVYYCNYRRITPWEASGNYWGQGTQVTVSS
notes: VHH in bacterial supernatant
B14: 4H9 VHH (VHH)
VHH: QVQLVESGGGAVQAGGSLRLSCTASGPIARSRSTGMGWFRQGPGKERESVAAISSDGRFTYYAASVKGRFTISKDNAKSAAFLQMNSLKPEDTAVYYCAARDSGSGYYSRAQWYDYWGQGTQVTVSS
notes: VHH in bacterial supernatant
B15: 2B10 VHH (VHH)
VHH: QVKLEESGGGLVQTGDSLRLSCAASSRIFRRYAMGWFRQAPGKEREFVAAITWSGASTTYTDSVKGRFTISRDSAENTTYLQMTSLRPEDTAVYYCAADPWGSVIVGTAEYEYWGQGTLVTVSS
notes: VHH in bacterial supernatant
B16: 1C12 VHH (VHH)
VHH: QVQLVESGGGLVQTGDSLRLSCAASSRIFSRYGMGWFRQAPGKEREFVAAISWNGASTTYTDSVKGRFTISRDSAENTTYLQINSLRPEDTAVYYCAADPWGAVKLGTAEYEYWGQGTQVTVSS
notes: VHH in bacterial supernatant
B17: 15A5 VHH (VHH)
VHH: QVQLVESGGGLVQAGGSLRLSCAASERTFSSFAMGWFRQAPGKEREVVAAIDPSGRYIYYKDSVKGRFTMSRDNAKSTVYLQMNSLKPDDTARYYCAARIRGEGYYTRSSFYHYWGQGTQVTVSS
notes: VHH in bacterial supernatant
B18: 3F10 VHH (VHH)
VHH: QVQLVESGGGLVQAGGSLRLSCASSEHTFSNFPMGWFRQAPGKERNVVAAIDSSGRLTYYADSVKGRFTISKDNAKSTVYLQMNSLKSEDTARYYCAARTGGVGYYSRSSFYNYWGQGTLVTVSS
notes: VHH in bacterial supernatant
B19: 3G7 VHH (VHH)
VHH: QVQLVESGGGLVQAGDSLRLSCEASGRTLSTYTMGWFRRAPGKEREFVGLAWPSPSTYVVDSVKGRFTISRDNAKNTIYLQMNSLKPEDTAIYYCAADYKSLTQSWLNAALDYWGQGTQVTVSS
notes: VHH in bacterial supernatant
B20: 3G6 VHH (VHH)
VHH: QVQLVESGGGLVQAGGSLSLSCAASGSIFGISVMGWYRQAPGEQRDLVATLTRAGLTTYGDSVKGRFSISRDSAKNTVYLQMNNLKPEDTAVYYCHANIMESAASTFGRYWGQGTQVTVSS
notes: VHH in bacterial supernatant
B21: 13H11 VHH (VHH)
VHH: QVQLVESGGGLVQAGGSLRLSCAASGLTFSMYAMGWFRQGPGKERESVAAISSDGRFTYYAASVKGRFTISKDNAKSAAFLQMNSLKPEDTAVYYCAARDSGSGYYSRAQWYDYWGQGTQVTVSS
notes: VHH in bacterial supernatant
B22: 1G1 VHH (VHH)
VHH: B21 VHH with G16D, A23V, L27P, T28S, M31S, A33P, Q120L
notes: VHH in bacterial supernatant
B23: 2B7 VHH (VHH)
VHH: B21 VHH with S21A, L27R, M31S, A33P
notes: VHH in bacterial supernatant

molecular target: T1, human TIGIT stably expressed on cells …; test: flow cytometry on Jurkat cells stably expressing h-TIGIT; VHH samples heated at 25 to 70 °C for 60 min (thermostability); concentration not given
Experimental: (§1) FIGS. 6A and 6B depict thermostability tested for representative clones. The VHH antibody samples were heated from 25 to 70° C. for 60 min. Binding of heated samples to human TIGIT was examined using ELISA or whole cell binding. […] Y axis represents OD450 obtained from the ELISA assay. X axis represents temperature for the treatment. […] Y axis represents percentage of binding to h-TIGIT. X axis represents temperature for the treatment.

binding result	Binder
binds	B1
binds	B2
binds	B3

molecular target: T1, human TIGIT stably expressed on cells …; test: whole cell binding

binding result	Binder
binds	B4
binds	B5
binds	B6

molecular target: T2, recombinant protein of his-tagged human …; test: Octet biolayer interferometry; BsAb loaded on the sensor, his-tagged h-TIGIT ECD at different concentrations (not given), then h-PDL1 ECD
Experimental: The sensors were loaded with BsAbs and then injected with different concentrations of recombinant protein of h-TIGIT ECD (his-tagged). After association of BsAbs with h-TIGIT, the sensors were injected again with different concentrations of recombinant protein of h-PDL1 ECD (his-tagged). […] Y axis represents association/disassociation and Rmax, X axis represents time in second.

binding result	Binder
binds	B7
binds	B8
binds	B9
binds	B10

molecular target: T3, recombinant human TIGIT extra cellular …; test: ELISA on h-TIGIT ECD; VHH samples heated at 25 to 70 °C for 60 min (thermostability); concentration not given
Experimental: as §1

binding result	Binder
binds	B1
binds	B2
binds	B3

molecular target: T1, human TIGIT stably expressed on cells …; test: flow cytometry on h-TIGIT stably transfected Jurkat cells; anti-h-IgG Fc AlexaFluor488 secondary

binding result	Binder
binds	B7
binds	B8
binds	B9
binds	B10

molecular target: T3, recombinant human TIGIT extra cellular …; test: ELISA, VHH in supernatant on h-TIGIT ECD coated plates

binding result	Binder
binds	B11
binds	B12
binds	B13
binds	B14

molecular target: T3, recombinant human TIGIT extra cellular …; test: blocking ELISA, PVR as competitor

inhibition of PVR binding to h-TIGIT [%]	Binder
> 90	B15
> 90	B16
> 90	B17
> 90	B18
> 90	B19
> 90	B20
> 90	B21
> 90	B22
> 90	B23
